Assay results as given in paper PMC3783163, “Attachment site recognition and regulation of directionality by the serine integrases”.

T1: LI integrase CTD (Listeria innocua prophage (CLIP 11262; …, UniProt Q928V6 133-452)
T1 sequence: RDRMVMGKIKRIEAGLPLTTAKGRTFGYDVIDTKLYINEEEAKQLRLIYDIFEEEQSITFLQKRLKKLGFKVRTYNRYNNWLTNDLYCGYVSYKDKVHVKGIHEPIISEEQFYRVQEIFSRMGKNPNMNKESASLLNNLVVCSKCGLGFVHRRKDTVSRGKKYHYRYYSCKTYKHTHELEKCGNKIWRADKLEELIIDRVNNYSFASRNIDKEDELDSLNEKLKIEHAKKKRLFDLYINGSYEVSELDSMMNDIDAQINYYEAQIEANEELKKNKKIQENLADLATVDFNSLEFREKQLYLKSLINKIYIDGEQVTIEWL


How the values were obtained:
[1] = test system: LI integrase WT (Listeria innocua prophage (CLIP 11262; cloned from ATCC BAA-680D genomic DNA)); assay: EMSA; details: EMSA: 20 mM Tris-HCl pH 7.4, 150 mM KCl, 2 mM DTT, 25 ug/ml BSA, 25 ug/ml salmon sperm DNA, 5% glycerol, ~1 nM DNA, 30 min at 30 C; 6% PAGE Tris-glycine pH …
[2] = test system: LI integrase ΔZD (Listeria innocua prophage (CLIP 11262; cloned from ATCC BAA-680D genomic DNA)); assay: EMSA; details: EMSA: 20 mM Tris-HCl pH 7.4, 150 mM KCl, 2 mM DTT, 25 ug/ml BSA, 25 ug/ml salmon sperm DNA, 5% glycerol, ~1 nM DNA, 30 min at 30 C; 6% PAGE Tris-glycine pH …
[3] = molecular target: T1, LI integrase CTD; assay: crystal structure (3.2 A); Zn2+ bound; 13 mM CaCl2 in drop; EMSA: 20 mM Tris-HCl pH 7.4, 150 mM KCl, 2 mM DTT, 25 ug/ml BSA, 25 ug/ml salmon sperm DNA, 5% glycerol, ~1 nM DNA, 30 min at 30 C; 6% PAGE Tris-glycine pH 8.3; details: protein: recombinant; tags: C-terminal His6 (LEH6); 5' overhangs 1 nt (G top, C bottom), 25 bp duplex

Molecule | Kd [1] | binding signal (fold weaker than WT) [2] | binding result [3]
LI attP 119-bp probe | 20 nM | 25 | 
LI attB 119-bp probe | 20 nM | 25 | 
A118 attP P-arm half-site (crystal) (dsDNA) DNA 1: GTTTAGTTCCTCGTTTTCTCTCGTTG DNA 2: CCAACGAGAGAAAACGAGGAACTAAA |  |  | binds
